{"source": "paper PMC6909241", "molecular_target": "NCp7 (nucleocapsid protein) (HIV-1, UniProt P12493 378-432)", "test": "EMSA; 7.5-300 nM NCp7, 15 nM RNA folded in 50 mM KCl; free G4 decreases from 75 nM, near complete disappearance and faint complex at 300 nM; EMSA: RNA annealed in 10 mM Li cacodylate pH 7.4, 50 mM KCl; 15 nM RNA in 8% glycerol, 30 mM Tris-HCl, 15 mM MgCl2, 50 uM ZnCl2, 37 C; 12% native gel at 4 C", "data": [{"binder": "GGGAGGCGUGGCCUGGGCGGGACUGGGGAGUGG (structured_RNA)", "note": "[RNA U3-III+IV G4]", "values": [{"measurement": "binding result", "result": "binds"}]}]}
